Consider 1 substance from US20260193348A1.

The target in test [1] is CD3 (Cluster of Differentiation 3 protein), human, on T cells / Jurkat cells (human) (UniProt P07766). The test can be described thus: FACS, CD3+ T cells isolated from normal donors.
Test [2] has as its target GPRC5D (G-protein coupled receptor family C group 5 member D), human, on multiple myeloma cell lines (human) (UniProt Q9NZD1). In words: cell-based or functional assay.

Sequence of GPRC5D (G-protein coupled receptor family C group 5 member D), human, on multiple myeloma cell lines (human) (Q9NZD1 whole entry): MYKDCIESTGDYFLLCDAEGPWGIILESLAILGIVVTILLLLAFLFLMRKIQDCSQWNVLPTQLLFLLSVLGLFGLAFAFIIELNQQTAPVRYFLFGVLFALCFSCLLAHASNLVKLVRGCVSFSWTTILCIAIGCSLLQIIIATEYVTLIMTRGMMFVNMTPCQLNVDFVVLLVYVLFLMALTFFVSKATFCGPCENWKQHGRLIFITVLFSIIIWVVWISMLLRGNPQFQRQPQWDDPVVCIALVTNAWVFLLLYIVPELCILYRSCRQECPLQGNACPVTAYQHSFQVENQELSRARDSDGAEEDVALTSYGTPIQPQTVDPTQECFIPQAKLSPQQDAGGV
Sequence of CD3 (Cluster of Differentiation 3 protein), human, on T cells / Jurkat cells (human) (P07766 23-207, chain 1 of 3): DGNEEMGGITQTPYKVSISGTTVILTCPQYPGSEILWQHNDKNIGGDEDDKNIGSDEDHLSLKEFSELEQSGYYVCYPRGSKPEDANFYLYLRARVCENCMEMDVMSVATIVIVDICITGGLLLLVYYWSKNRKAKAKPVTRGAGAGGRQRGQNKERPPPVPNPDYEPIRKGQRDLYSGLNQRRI
Sequence of CD3 (Cluster of Differentiation 3 protein), human, on T cells / Jurkat cells (human) (P04234 22-171, chain 2 of 3, further chain): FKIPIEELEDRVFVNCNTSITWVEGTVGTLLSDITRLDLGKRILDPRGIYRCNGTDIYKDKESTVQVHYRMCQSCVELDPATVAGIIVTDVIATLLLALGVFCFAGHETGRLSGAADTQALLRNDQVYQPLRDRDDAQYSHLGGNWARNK
Sequence of CD3 (Cluster of Differentiation 3 protein), human, on T cells / Jurkat cells (human) (P09693 23-182, chain 3 of 3, further chain): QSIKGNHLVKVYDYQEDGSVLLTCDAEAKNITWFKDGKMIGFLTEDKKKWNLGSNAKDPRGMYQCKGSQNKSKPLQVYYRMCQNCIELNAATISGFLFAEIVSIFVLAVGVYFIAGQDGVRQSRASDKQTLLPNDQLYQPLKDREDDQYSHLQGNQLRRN

IgG1 (antibody) came in with a Top (MFI) in test [1] of 124 MFI. In test [2], this substance yielded a Top (%), T-Cell Dependent Cytotoxicity, MM.1S of 6.08%; a Top (RLU), luciferase assay, L363 of 23.4 RLU; a Top (RLU), luciferase assay, MM.1S of 30.7 RLU; a Top (RLU), luciferase assay, RPMI8226 of 5.33 RLU.
